Measured values taken from paper PMC3212511.

Legend:
[1] = molecular target: human desmin (assembled into filaments in vitro) (human) (UniProt P17661); test: low-speed sedimentation assay; desmin alone assembled at 22°C; 2,500 g, 10 min, 20°C; pellets only filaments associated with each other (filament-filament interactions); SDS-PAGE densitometry
[2] = molecular target: human desmin (assembled into filaments in vitro) (human) (UniProt P17661); test: low-speed sedimentation assay; desmin alone assembled at 37°C; 2,500 g, 10 min, 20°C; pellets only filaments associated with each other (filament-filament interactions); SDS-PAGE densitometry
[3] = molecular target: human desmin (assembled into filaments in vitro) (human) (UniProt P17661); test: low-speed sedimentation assay; desmin alone assembled at 44°C; 2,500 g, 10 min, 20°C; pellets only filaments associated with each other (filament-filament interactions); SDS-PAGE densitometry

% of desmin in the low-speed pellet (filament-filament interactions) [1]: 24%
% of desmin in the low-speed pellet (filament-filament interactions) [2]: 45%
% of desmin in the low-speed pellet (filament-filament interactions) [3]: 61%
Substance: human desmin (assembled into filaments in vitro) (from UniProt P17661 1-470) (natural protein)
